Measured values as given in PMC4694755 (Molecular Biology of the Cell, 2016).

Molecular target: Mouse importin β (mouse, UniProt P70168 1-876)
Assay: SPR

Mouse importin β, sequence (P70168 whole entry): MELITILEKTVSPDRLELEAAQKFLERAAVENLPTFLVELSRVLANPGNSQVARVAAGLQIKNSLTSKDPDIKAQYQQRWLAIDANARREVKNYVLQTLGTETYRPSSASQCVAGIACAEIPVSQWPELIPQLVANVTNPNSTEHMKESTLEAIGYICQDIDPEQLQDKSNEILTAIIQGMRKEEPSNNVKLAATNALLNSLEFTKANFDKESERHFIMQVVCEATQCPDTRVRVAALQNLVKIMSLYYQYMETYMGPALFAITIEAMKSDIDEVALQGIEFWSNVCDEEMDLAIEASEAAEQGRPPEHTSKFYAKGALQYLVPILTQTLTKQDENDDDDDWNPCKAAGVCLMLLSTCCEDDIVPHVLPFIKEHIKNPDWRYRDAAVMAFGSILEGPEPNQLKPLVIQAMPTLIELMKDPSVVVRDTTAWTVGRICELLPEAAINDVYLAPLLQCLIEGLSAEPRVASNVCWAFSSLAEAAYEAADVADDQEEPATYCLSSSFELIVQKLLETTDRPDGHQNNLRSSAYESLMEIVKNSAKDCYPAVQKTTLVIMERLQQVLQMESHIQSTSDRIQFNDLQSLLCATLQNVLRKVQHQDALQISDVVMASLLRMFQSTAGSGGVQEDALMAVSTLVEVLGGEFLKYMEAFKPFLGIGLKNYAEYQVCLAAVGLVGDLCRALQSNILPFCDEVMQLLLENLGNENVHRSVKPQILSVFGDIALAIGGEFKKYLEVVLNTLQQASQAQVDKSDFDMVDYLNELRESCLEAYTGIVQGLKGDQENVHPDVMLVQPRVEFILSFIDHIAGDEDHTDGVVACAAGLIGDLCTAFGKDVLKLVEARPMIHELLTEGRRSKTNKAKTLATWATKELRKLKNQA

koff: 0.00132 s⁻¹
kon: 99400 M⁻¹ s⁻¹
B1: importin β–binding domain of rat importin α (IBB, amino acids 1–66) (domain or fragment)
chain: not shown
